Test results reported in publication PMC7332966 (2020).

Molecular target: FANCD2 (from His6-3C-FANCD2, His6-tag cleaved by 3C protease) (human, UniProt Q9BXW9 1-1451)
Sequence (Q9BXW9 whole entry): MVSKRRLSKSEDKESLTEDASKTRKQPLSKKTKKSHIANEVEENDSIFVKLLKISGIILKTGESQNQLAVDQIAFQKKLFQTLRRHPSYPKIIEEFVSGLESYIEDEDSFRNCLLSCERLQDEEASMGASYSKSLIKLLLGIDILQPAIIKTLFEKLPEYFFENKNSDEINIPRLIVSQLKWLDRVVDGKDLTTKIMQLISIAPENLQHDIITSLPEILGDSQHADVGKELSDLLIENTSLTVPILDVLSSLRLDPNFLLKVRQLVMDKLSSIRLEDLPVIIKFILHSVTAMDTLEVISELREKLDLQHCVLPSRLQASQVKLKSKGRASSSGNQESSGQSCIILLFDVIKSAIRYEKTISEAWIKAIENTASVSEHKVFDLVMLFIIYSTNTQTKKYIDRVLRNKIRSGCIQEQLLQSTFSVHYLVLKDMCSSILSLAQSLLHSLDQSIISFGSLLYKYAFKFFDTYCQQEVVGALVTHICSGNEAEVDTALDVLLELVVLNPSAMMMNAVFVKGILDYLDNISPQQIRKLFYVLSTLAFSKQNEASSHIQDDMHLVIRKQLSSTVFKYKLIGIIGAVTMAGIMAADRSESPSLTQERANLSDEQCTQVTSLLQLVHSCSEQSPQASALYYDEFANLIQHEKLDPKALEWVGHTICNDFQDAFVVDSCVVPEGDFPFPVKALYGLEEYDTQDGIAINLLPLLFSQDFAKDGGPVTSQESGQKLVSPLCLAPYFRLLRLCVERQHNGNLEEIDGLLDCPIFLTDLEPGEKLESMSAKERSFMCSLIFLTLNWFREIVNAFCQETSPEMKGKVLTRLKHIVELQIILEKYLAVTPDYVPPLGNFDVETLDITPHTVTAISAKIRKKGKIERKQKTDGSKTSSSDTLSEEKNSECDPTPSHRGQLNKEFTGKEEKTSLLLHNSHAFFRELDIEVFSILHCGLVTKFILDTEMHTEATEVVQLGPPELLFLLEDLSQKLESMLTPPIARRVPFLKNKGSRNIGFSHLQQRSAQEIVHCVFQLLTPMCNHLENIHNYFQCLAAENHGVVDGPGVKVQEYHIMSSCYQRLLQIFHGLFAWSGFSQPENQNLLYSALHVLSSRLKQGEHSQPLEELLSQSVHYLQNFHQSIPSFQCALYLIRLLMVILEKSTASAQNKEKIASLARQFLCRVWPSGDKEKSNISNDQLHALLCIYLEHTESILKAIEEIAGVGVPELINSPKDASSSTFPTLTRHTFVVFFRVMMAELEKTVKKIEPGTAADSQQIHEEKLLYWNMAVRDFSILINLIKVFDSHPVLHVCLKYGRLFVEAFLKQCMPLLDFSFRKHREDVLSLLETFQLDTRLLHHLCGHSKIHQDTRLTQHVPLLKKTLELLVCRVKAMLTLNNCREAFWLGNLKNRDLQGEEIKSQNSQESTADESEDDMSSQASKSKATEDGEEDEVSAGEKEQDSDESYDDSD

- Kd: 11 nM
B1: His6-FANCI (wild type) (natural protein)
chain: MDQKILSLAAEKTADKLQEFLQTLREGDLTNLLQNQAVKGKVAGALLRAIFKGSPCSEEAGTLRRRKIYTCCIQLVESGDLQKEIASEIIGLLMLEAHHFPGPLLVELANEFISAVREGSLVNGKSLELLPIILTALATKKENLAYGKGVLSGEECKKQLINTLCSGRWDQQYVIQLTSMFKDVPLTAEEVEFVVEKALSMFSKMNLQEIPPLVYQLLVLSSKGSRKSVLEGIIAFFSALDKQHNEEQSGDELLDVVTVPSGELRHVEGTIILHIVFAIKLDYELGRELVKHLKVGQQGDSNNNLSPFSIALLLSVTRIQRFQDQVLDLLKTSVVKSFKDLQLLQGSKFLQNLVPHRSYVSTMILEVVKNSVHSWDHVTQGLVELGFILMDSYGPKKVLDGKTIETSPSLSRMPNQHACKLGANILLETFKIHEMIRQEILEQVLNRVVTRASSPISHFLDLLSNIVMYAPLVLQSCSSKVTEAFDYLSFLPLQTVQRLLKAVQPLLKVSMSMRDCLILVLRKAMFANQLDARKSAVAGFLLLLKNFKVLGSLSSSQCSQSLSVSQVHVDVHSHYNSVANETFCLEIMDSLRRCLSQQADVRLMLYEGFYDVLRRNSQLANSVMQTLLSQLKQFYEPKPDLLPPLKLEACILTQGDKISLQEPLDYLLCCIQHCLAWYKNTVIPLQQGEEEEEEEEAFYEDLDDILESITNRMIKSELEDFELDKSADFSQSTSIGIKNNICAFLVMGVCEVLIEYNFSISSFSKNRFEDILSLFMCYKKLSDILNEKAGKAKTKMANKTSDSLLSMKFVSSLLTALFRDSIQSHQESLSVLRSSNEFMRYAVNVALQKVQQLKETGHVSGPDGQNPEKIFQNLCDITRVLLWRYTSIPTSVEESGKKEKGKSISLLCLEGLQKIFSAVQQFYQPKIQQFLRALDVTDKEGEEREDADVSVTQRTAFQIRQFQRSLLNLLSSQEEDFNSKEALLLVTVLTSLSKLLEPSSPQFVQMLSWTSKICKENSREDALFCKSLMNLLFSLHVSYKSPVILLRDLSQDIHGHLGDIDQDVEVEKTNHFAIVNLRTAAPTVCLLVLSQAEKVLEEVDWLITKLKGQVSQETLSEEASSQATLPNQPVEKAIIMQLGTLLTFFHELVQTALPSGSCVDTLLKDLCKMYTTLTALVRYYLQVCQSSGGIPKNMEKLVKLSGSHLTPLCYSFISYVQNKSKSLNYTGEKKEKPAAVATAMARVLRETKPIPNLIFAIEQYEKFLIHLSKKSKVNLMQHMKLSTSRDFKIKGNILDMVLREDGEDENEEGTASEHGGQNKEPAKKKRKK
modifications: RED-tris-NTA dye (NanoTemper) on the His6 tag
